The results in this text go back to publication PMC7498358.

The data set deals with YB-1 CSDex (Homo sapiens, UniProt P67809 51-140). The data set is described as follows: NMR HSQC titration.
Sequence of YB-1 CSDex (P67809 51-140): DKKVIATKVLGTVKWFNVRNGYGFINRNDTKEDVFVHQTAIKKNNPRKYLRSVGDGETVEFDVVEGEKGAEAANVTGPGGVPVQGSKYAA

B1: CACC dsDNA (dsDNA)
DNA 1: TCAACACCTC
DNA 2: GAGGTGTTGA
For B1, the binding result is listed as “binds”.
